In patent US20170298096A1 (CANIMGUIDE THERAPEUTICS, published 2017):
No end group written: not given here.

T1: His-tagged P3028 (human, also: His-tag, terminus and sequence not given here)
T1 construct: used in solution in the PEPSCAN (rampo) ELISA; also called PGE73; His-tag-P3028; not shown: His tag
T1 peptide: VFDEFKPLVEEPQNLIK

T2: His-tagged P3028 (human, not fully specified)
T2 construct: the tag is put first after 'PGE73=His-tag-P3028'; also called PGE73; not shown: His-tag
T2 peptide: {His‑tag}-VFDEFKPLVEEPQNLIK


Target: T1, His-tagged P3028
Experiment: PEPSCAN ELISA (rampo)
Experimental: After washing, the peroxidase substrate 2,2′-azine-di-3-ethylbenzthiazoline sulfonate (ABTS) and 2 μL of 3% H2O2 were added. The binding capacity of the mAb was measured as a color development at 405 nm (optical density, OD405). The color development was quantified with a charge-coupled device (CCD)—camera and an image processing system.
The OD405-values obtained by a CCD-camera was considered as raw data values (“rampo values,” “rampo units,” or “rampo scores”). […] First the CCD-camera made a picture of the card before peroxidase coloring and then again a picture after the peroxidase coloring. […] These values were copied into an excel file and labeled as a raw data file. One follow-up manipulation was allowed. Sometimes a well can contain an air-bubble resulting in a false-positive value. If manual inspection of the cards detect an air-bubble the value are set to 0 for that well.
RKLDTFFVKLSLFTER [SEQ ID NO 3] gave a rampo value greater than 500 rampo units.
Work on KKGDTFFVKLSLFTER [SEQ ID NO 4] yielded a rampo value greater than 500 rampo units.
KKEDTFFVKLSLFTER [SEQ ID NO 5] was tested, and the rampo value was greater than 500 rampo units.
Work on KKLDQFFVKLSLFTER [SEQ ID NO 6] yielded a rampo value greater than 500 rampo units.
Binder KKLDTAFVKLSLFTER [SEQ ID NO 7] has a rampo value greater than 500 rampo units.
Work on KKLDTVFVKLSLFTER [SEQ ID NO 8] yielded a rampo value greater than 500 rampo units.
In the case of KKLDTFVVKLSLFTER [SEQ ID NO 11], the rampo value is reported as greater than 500 rampo units.
Binder KKLDTFTVKLSLFTER [SEQ ID NO 12] has a rampo value greater than 500 rampo units.
Work on KKLDTFLVKLSLFTER [SEQ ID NO 13] yielded a rampo value greater than 500 rampo units.
KKLDTFFVKVSLFTER [SEQ ID NO 14] gave a rampo value greater than 500 rampo units.
Work on KKLDTFFVKLTLFTER [SEQ ID NO 17] yielded a rampo value greater than 500 rampo units.
Binder KKLDTFFVKLHLFTER [SEQ ID NO 18] has a rampo value greater than 500 rampo units.
Work on KKLDTFFVKLSQFTER [SEQ ID NO 19] yielded a rampo value greater than 500 rampo units.
Binder KKLDTFFVKLSVFTER [SEQ ID NO 20] has a rampo value greater than 500 rampo units.
KKLDTFFVKLSMFTER [SEQ ID NO 21] gave a rampo value greater than 500 rampo units.
In the case of KKLDTFFVKLSLPTER [SEQ ID NO 26], the rampo value is reported as greater than 500 rampo units.
Work on KKLDTFFVKLSLSTER [SEQ ID NO 27] yielded a rampo value greater than 500 rampo units.
KKLDTFFVKLSLGTER [SEQ ID NO 28] showed a rampo value greater than 500 rampo units.
With KKLDTFFVKLSLATER [SEQ ID NO 29] the rampo value was greater than 500 rampo units.
In the case of KKLDTFFVKLSLRTER [SEQ ID NO 30], the rampo value is reported as greater than 500 rampo units.
In the case of KKLDTFFVKLSLFNER [SEQ ID NO 31], the rampo value is reported as greater than 500 rampo units.
With KKLDTFFVKLSLFPER [SEQ ID NO 32] the rampo value was greater than 500 rampo units.
KKLDTFFVKLSLFRER [SEQ ID NO 33] gave a rampo value greater than 500 rampo units.
In the case of AKLDTFFVKLSLFTER [SEQ ID NO 268], the “rampo score relative to the P28R control sample” value is reported as ≥ 98 % of P28R control.
For DKLDTFFVKLSLFTER [SEQ ID NO 269], the “rampo score relative to the P28R control sample” value was ≥ 98 % of P28R control.
EKLDTFFVKLSLFTER [SEQ ID NO 270] was tested, and the “rampo score relative to the P28R control sample” value was ≥ 98 % of P28R control.
In the case of GKLDTFFVKLSLFTER [SEQ ID NO 271], the “rampo score relative to the P28R control sample” value is reported as ≥ 98 % of P28R control.
With HKLDTFFVKLSLFTER [SEQ ID NO 272] the “rampo score relative to the P28R control sample” value was ≥ 98 % of P28R control.
IKLDTFFVKLSLFTER [SEQ ID NO 273] was tested, and the “rampo score relative to the P28R control sample” value was ≥ 98 % of P28R control.
In the case of LKLDTFFVKLSLFTER [SEQ ID NO 274], the “rampo score relative to the P28R control sample” value is reported as ≥ 98 % of P28R control.
MKLDTFFVKLSLFTER [SEQ ID NO 275] was tested, and the “rampo score relative to the P28R control sample” value was ≥ 98 % of P28R control.
NKLDTFFVKLSLFTER [SEQ ID NO 276] was tested, and the “rampo score relative to the P28R control sample” value was ≥ 98 % of P28R control.
For PKLDTFFVKLSLFTER [SEQ ID NO 277], the “rampo score relative to the P28R control sample” value was ≥ 98 % of P28R control.
In the case of QKLDTFFVKLSLFTER [SEQ ID NO 278], the “rampo score relative to the P28R control sample” value is reported as ≥ 98 % of P28R control.
For RKLDTFFVKLSLFTER [SEQ ID NO 279], the “rampo score relative to the P28R control sample” value was ≥ 98 % of P28R control.
For TKLDTFFVKLSLFTER [SEQ ID NO 280], the “rampo score relative to the P28R control sample” value was ≥ 98 % of P28R control.
With VKLDTFFVKLSLFTER [SEQ ID NO 281] the “rampo score relative to the P28R control sample” value was ≥ 98 % of P28R control.
With KKADTFFVKLSLFTER [SEQ ID NO 282] the “rampo score relative to the P28R control sample” value was ≥ 98 % of P28R control.
KKCDTFFVKLSLFTER [SEQ ID NO 283] was tested, and the “rampo score relative to the P28R control sample” value was ≥ 98 % of P28R control.
For KKDDTFFVKLSLFTER [SEQ ID NO 284], the “rampo score relative to the P28R control sample” value was ≥ 98 % of P28R control.
KKEDTFFVKLSLFTER [SEQ ID NO 285] was tested, and the “rampo score relative to the P28R control sample” value was ≥ 98 % of P28R control.
With KKFDTFFVKLSLFTER [SEQ ID NO 286] the “rampo score relative to the P28R control sample” value was ≥ 98 % of P28R control.
KKGDTFFVKLSLFTER [SEQ ID NO 287] was tested, and the “rampo score relative to the P28R control sample” value was ≥ 98 % of P28R control.
For KKHDTFFVKLSLFTER [SEQ ID NO 288], the “rampo score relative to the P28R control sample” value was ≥ 98 % of P28R control.
With KKIDTFFVKLSLFTER [SEQ ID NO 289] the “rampo score relative to the P28R control sample” value was ≥ 98 % of P28R control.
For KKKDTFFVKLSLFTER [SEQ ID NO 290], the “rampo score relative to the P28R control sample” value was ≥ 98 % of P28R control.
For KKMDTFFVKLSLFTER [SEQ ID NO 291], the “rampo score relative to the P28R control sample” value was ≥ 98 % of P28R control.
With KKNDTFFVKLSLFTER [SEQ ID NO 292] the “rampo score relative to the P28R control sample” value was ≥ 98 % of P28R control.
KKQDTFFVKLSLFTER [SEQ ID NO 293] was tested, and the “rampo score relative to the P28R control sample” value was ≥ 98 % of P28R control.
For KKRDTFFVKLSLFTER [SEQ ID NO 294], the “rampo score relative to the P28R control sample” value was ≥ 98 % of P28R control.
In the case of KKSDTFFVKLSLFTER [SEQ ID NO 295], the “rampo score relative to the P28R control sample” value is reported as ≥ 98 % of P28R control.
With KKTDTFFVKLSLFTER [SEQ ID NO 296] the “rampo score relative to the P28R control sample” value was ≥ 98 % of P28R control.

Target: T2, His-tagged P3028
Experiment: chip ELISA
KKLDTFFDKLSLFTER [P28R V8D] showed an ELISA signal of 122.
For KKLDTFFEKLSLFTER [P28R V8E], the ELISA signal was 139.
KKLDTFFFKLSLFTER [P28R V8F] showed an ELISA signal of 358.
For KKLDTFFHKLSLFTER [P28R V8H], the ELISA signal was 213.
For KKLDTFFIKLSLFTER [P28R V8I], the ELISA signal was 401.
In the case of KKLDTFFKKLSLFTER (also called P27; SCF27) [P28R V8K], the ELISA signal is reported as 253.
With KKLDTFFLKLSLFTER [P28R V8L] the ELISA signal was 411.
In the case of KKLDTFFMKLSLFTER [P28R V8M], the ELISA signal is reported as 221.
Binder KKLDTFFNKLSLFTER [P28R V8N] has an ELISA signal of 203.
KKLDTFFQKLSLFTER [P28R V8Q] was tested, and the ELISA signal was 271.
With KKLDTFFRKLSLFTER [P28R V8R] the ELISA signal was 365.
KKLDTFFSKLSLFTER [P28R V8S] was tested, and the ELISA signal was 216.
KKLDTFFTKLSLFTER [P28R V8T] gave an ELISA signal of 298.
For KKLDTFFWKLSLFTER [P28R V8W], the ELISA signal was 228.
With KKLDTFFYKLSLFTER [P28R V8Y] the ELISA signal was 211.
